Each block holds one substance with its values, some of them ahead of it.
How the values were obtained:
GFAT1 [1] = molecular target: GFAT1 (UniProt Q06210); assay: GST pull-down after in vitro kinase reaction; settings: sites S438
GFAT1 [2] = molecular target: GFAT1 (UniProt Q06210); assay: His-TAB1 pull-down after JNK reaction; settings: reference: His-TAB1 WT treated with JNK; sites S438
GFAT1 [3] = molecular target: GFAT1 (UniProt Q06210); assay: co-immunoprecipitation of TAB1 mutants; settings: reference: wild type; sites S438

binding against the reference (GFAT1 [1]; reference: His-TAB1 WT treated with p38α): weaker
Substance: TAB1 (from UniProt Q15750) His-TAB1-S438A treated with p38α

binding against the reference (GFAT1 [2]): weaker
Substance: TAB1 (from UniProt Q15750) His-TAB1-S438A treated with JNK

binding against the reference (GFAT1 [3]): weaker
Substance: TAB1 (from UniProt Q15750) S438A

binding against the reference (GFAT1 [1]; reference: His-TAB1 WT treated with JNK1): weaker
Substance: TAB1 (from UniProt Q15750) His-TAB1-S438A treated with JNK1

Source: PMC9363421
